For data set [1], the target named is T1, PAR2 (Homo sapiens, UniProt P55085). Kind of data set: Agonist | (%)^†. The following applies: 4 µM. On the set-up: SW620 colon adenocarcinoma cells that endogenously express PAR2; endogenous in cells; host or cells: SW620 (in A7 the SW620 cells were additionally stably transfected with PAR1).
Experimental: (§2) (A) Agonist and antagonist activity of third intracellular (i3) loop PAR2 pepducins (structure shown on top) using calcium flux assays with SW620 colon adenocarcinoma cells that endogenously express PAR2. Each column of three calcium flux traces corresponds to the i3 pepducin sequence shown above. The top row is the agonist activity of 3-4 μM pepducin and the middle row is the agonist activity of 14-15 μM pepducin. […] Final concentration of DMSO vehicle was 0.2%. […] (C) Agonist activity for each pepducin from (A) is reported as initial velocity of calcium flux at 4 μM pepducin (†), or at 14-15 μM pepducin (‡).
In data set [2] the target is T1, PAR2. The data set is described as follows: Antagonist | (% inhibition). On the set-up: SW620 colon adenocarcinoma cells that endogenously express PAR2; endogenous in cells; host or cells: SW620 (in A7 the SW620 cells were additionally stably transfected with PAR1). The following applies: 6 µM.
Experimental: as §2
Data set [3] has as its target T1, PAR2. The data set is described as follows: Agonist | (%)^‡. On the set-up: SW620 colon adenocarcinoma cells that endogenously express PAR2; endogenous in cells; host or cells: SW620 (in A7 the SW620 cells were additionally stably transfected with PAR1).
The next data set concerns A549 xenografts. Type of data set: in vivo, mouse. On the procedure:
(§1) FIG. 13 illustrates that monotherapy with PAR1-i3 pepducins inhibits tumor progression of A549 xenografts. (A) and (B): A549 mice treated with vehicle, P1pal-7, P1pal-i1-11, P1pal-10S, X1/2-i1, X1/2-i3, or Avastin. Each time point represents the mean±SE. (C): Final tumor volume at the completion of the experiment was calculated as a percentage of untreated vehicle control. (D): Serum-starved A549 adenocarcinoma cells were pretreated with P1pal-7, P1pal-10S, P1pal-i1-11, vehicle, or PD98059 and stimulated with thrombin. VEGF production was assessed by enzyme-linked immunosorbent assay. Data are expressed as mean±SD (*P<0.05, **P<0.01).
PAR1 expression level is correlated with reduced survival of patients with NSCLC. To define the relative importance of PAR1 in lung tumor progression, in vivo mouse models were used. […] An A549 lung adenocarcinoma xenograft model in nude mice was used to evaluate monotherapy with P1pal-7, P1pal-10S, P1pal-i1-11, or the VEGF antagonist Avastin.

Data set [4] addresses T1, PAR2. The data set is described as follows: Calcium flux screen for PAR2 pepducin agonist and antagonist activity in SW620 cells. Type of data set: cell-based. On the set-up: SW620 colon adenocarcinoma cells that endogenously express PAR2; endogenous in cells; host or cells: SW620 (in A7 the SW620 cells were additionally stably transfected with PAR1). The following applies: for Agonist activity (calcium flux): 3-4 μM and 14-15 μM pepducin; for Antagonist activity (inhibition of SLIGRL calcium flux, area under the curve): 6 μM pepducin, 1 min pretreatment, against 100 μM SLIGRL.
Experimental: as §2

The subject of a further data set is VEGF-A production. Kind of data set: Thrombin-dependent VEGF-A production in A549 cells (ELISA). Type of data set: cell-based, human. The following applies: A549, 18 hours thrombin treatment. Here is the method:
as §1
Because the i3-based P1pal-7 pepducin had similar efficacy as Avastin in suppressing lung tumor growth of A549 xenografts, VEGF-A production was measured in the A549 tumor cells after 18 hours thrombin treatment. […] Unlike in ovarian cancer, no increase was found in PAR1-mediated IL-8 production in A549 cells, consistent with the observed lack of efficacy of CXCR1/2 pepducins in the A549 xenograft models. These xenograft data provide support for the role of a novel PAR1-ERK1/2-VEGF paracrine pathway that is an effective therapeutic target in the A549 adenocarcinoma lung cancer model.
Background: An ELISA detects its analyte on a solid surface through an enzyme-linked reagent.

Data set [5] deals with A549, HOP62, and HOP92 lung carcinoma cell lines. The data set is described as follows: Cytotoxicity/cell viability of lung carcinoma cells (MIT assay). It is filed as cell-based, human. The following applies: 3-day period.
Data set [6] can be described thus: Pharmacokinetics of PAR1 pepducins in CF-1 mice, plasma LC/MS/MS. The following applies: 10 mg/kg s.c. It is filed as in vivo, mouse. Here is the method:
FIG. 14 illustrates pharmacokinetics of PAR1 pepducins. (A): CF-1 mice were injected subcutaneously with P1pal-7 (3 mg/kg, open circles), P1pal-7 (10 mg/kg, closed circles), P1pal-10S (10 mg/kg, gray circles), or P1pal-i1-11 (10 mg/kg, open squares) in 20% dimethyl sulfoxide and blood was collected at indicated time points (n=3). Pepducin levels in plasma were quantified with LC/MS/MS. (B): Daily (D1 to D6) plasma levels of P1pal-7 after subcutaneous injection of 10 mg/kg P1pal-7 were measured at 1 hour (open circles) and 24 hours (open squares).
Pharmacokinetics of plasma levels of P1pal-7, P1pal-10S, and P1pal-i1-11 at 30 minutes, and at 1, 2, 4, 6, 8, and 16 hours was measured by LC/MS/MS to determine steady-state pepducin drug levels and the rate of elimination from mice. Subcutaneous injections of P1pal-7 (3 mg/kg or 10 mg/kg) into wild-type CF-1 mice (25 to 30 g) was followed by blood collection at various time points from the vena cava. […] Residual P1pal-7 levels were 10 nmol/L at the 16-hour time point. After the 4-hour plateau, the elimination rate was linear from 4 to 16 hours. The peak plasma level of 3 mg/kg P1pal-7 reached 0.6 μmol/L at 2 hours and elimination was linear between 2 hours and 16 hours. P1pal-10S (10 mg/kg) gave similar peak plasma level of 1.0 μmol/L as P1pal-7 (10 mg/kg) at 1 hour.
Lastly, the peak plasma level of P1pal-7 (10 mg/kg) was measured before and 1 hour after once-daily subcutaneous injection over 6 days to determine whether the peak plasma levels were consistent on daily administration.

A further data set addresses T2, PAR1 (Homo sapiens, UniProt P25116).
T2 sequence (P25116 22-425): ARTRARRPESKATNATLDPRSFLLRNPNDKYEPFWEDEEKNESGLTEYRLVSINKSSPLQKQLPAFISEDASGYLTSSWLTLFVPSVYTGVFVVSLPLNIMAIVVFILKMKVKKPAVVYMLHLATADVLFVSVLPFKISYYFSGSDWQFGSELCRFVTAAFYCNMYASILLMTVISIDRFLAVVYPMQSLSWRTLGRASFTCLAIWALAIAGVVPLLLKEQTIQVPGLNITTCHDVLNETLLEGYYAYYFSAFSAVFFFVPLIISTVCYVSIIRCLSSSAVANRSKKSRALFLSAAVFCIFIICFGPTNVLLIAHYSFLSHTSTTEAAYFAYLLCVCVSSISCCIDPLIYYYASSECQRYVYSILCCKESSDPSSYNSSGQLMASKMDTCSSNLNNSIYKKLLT
The data set is described as follows: ERK1/2 phosphorylation in A549 cells (thrombin or […]), Western blot. It is filed as cell-based. On the set-up: endogenous in cells; host or cells: A549, HOP62, H1299, H522, H226, HOP92 lung carcinoma lines. The following applies: A549 cells; pepducin 0.1-3 μM. Here is the method: FIG. 9 illustrates that differential inhibition of PAR1-ERK activation by i3- and i1-derived PAR1 pepducins. (A-C): Western blots of lysates from A549 cells untreated, or treated with thrombin, SLIGKV (SEQ ID NO:29), or AYPGKF (SEQ ID NO:5). Indicated samples were pretreated with various concentrations (0.1 to 3 μmol/L) of P1pal-7, P1pal-10S, or P1pal-i1-11 before stimulation and immunoblotted with anti-phospho-ERK. (D-F): Quantification of the Western blots in (A-C) were conducted by densitometry and results are expressed relative to maximum (fold max) phosphorylation of pERK.
(B): A549 cells stimulated with 10 μM […] over 2 h. A549 cells pretreated with 0.1 μM P1pal-7 and stimulated with 10 μM […] (SEQ ID NO:30) for 5 min. Total ERK was used as a loading control.
Last, there has been a great deal of interest in understanding the mechanism of PAR1-mediated activation of MAP kinase cascade and PAR1-dependent cellular growth and differentiation, proliferation and gene transcription. […] The effects of i1 versus i3 PAR1 pepducins on ERK1/2 activation were examined in the A549 lung adenocarcinoma cell line. […] Inhibition experiments with a range of pepducin concentrations (0.1-3 μM) were conducted. […] The […] (SEQ ID NO:30) peptide gave a rapid and transient ERK1/2 phosphorylation signal that peaked at 5-15 min after stimulation. […] To determine the specificity of the PAR1 pepducin inhibitors, their effects on the closely related PAR2 and PAR4 receptors were also tested.

Where two headings read alike, the source gives them in different places. Peptide text beside a SMILES is read from it. * marks the point of attachment. Palmitoyl = CCCCCCCCCCCCCCCC(=O)*

In the case of “P2pal-18F: palmitoylated PAR2 pepducin, K287 to F, first three residues (R267, M268, L269) deleted; SEQ ID NO:19 (Palmitoyl-RSSAMDENSEKKRKRAIF-NH2) [listing 1 of 2 here]”, in the data set with PAR2 [1], the “Agonist | (%)^†” value is 5%. Moreover, the “Antagonist | (% inhibition)” value with PAR2 [2] is 0 % inhibition. The “Agonist | (%)^‡” value with PAR2 [3] is given as 35%.
With “Avastin: VEGF antibody; VEGF antagonist [reference compound]”, the “Inhibition of tumor progression/growth (final tumor volume vs vehicle)” value in the data set on A549 xenografts (monotherapy, nude mice) is recorded as 75%.
As for “P2pal-18SF: palmitoylated PAR2 pepducin, R284 to S and K287 to F; SEQ ID NO:21 (Palmitoyl-RSSAMDENSEKKRKSAIF-NH2) [listing 1 of 2 here]”, the “Agonist | (%)^†” value with PAR2 [1] amounted to 8%. Also, in the data set with PAR2 [2], the “Antagonist | (% inhibition)” value is recorded as 57 % inhibition. Further, in the data set with PAR2 [3], the “Agonist | (%)^‡” value was 30%.
In the case of “P2pal-18Q: palmitoylated PAR2 pepducin, R284 replaced by glutamine; SEQ ID NO:22 (Palmitoyl-RSSAMDENSEKKRKQAIK-NH2) [listing 1 of 2 here]”, the “Agonist activity (calcium flux)” value with PAR2 [4] is listed as “nearly no agonist activity”.
Take “P2pal-14GF: N-terminally truncated palmitoylated PAR2 pepducin, M274 to G and K287 to F; SEQ ID NO:23 (Palmitoyl-GDENSEKKRKRAIF-NH2) [listing 1 of 2 here]”: in the data set with PAR2 [1], the “Agonist | (%)^†” value stood at 3%. Moreover, the “Antagonist | (% inhibition)” value in the data set with PAR2 [2] came out at 0 % inhibition. Also, the “Agonist | (%)^‡” value in the data set with PAR2 [3] came to 8%.
In the case of “P2pal-18Q: palmitoylated PAR2 pepducin, R284 replaced by glutamine; SEQ ID NO:22 (Palmitoyl-RSSAMDENSEKKRKQAIK-NH2) [listing 2 of 2 here]”, the “Agonist | (%)^‡” value with PAR2 [3] is 16%.
As to `COc1cccc(-c2cc(=O)c3ccccc3o2)c1N` [PD98059, reference compound], the “Effect on thrombin-dependent VEGF-A production” value with VEGF-A production is recorded as “could suppress”.
`CCCCCCCCCCCCCCCC(=O)N[C@@H](CC(N)=O)C(=O)N[C@@H](CCCNC(=N)N)C(=O)N[C@@H](CO)C(=O)N[C@@H](CCCCN)C(=O)N[C@@H](CCCCN)C(=O)N[C@@H](CO)C(=O)N[C@@H](CO)C(=O)N[C@@H](C)C(=O)N[C@@H](CC(C)C)C(=O)N[C@@H](Cc1ccccc1)C(N)=O` [P1pal-10S] (Palmitoyl-NRSKKSSALF-NH2): in data set [5], the “Sensitivity of A549 cells (cytotoxicity)” value is given as “most sensitive”. For the same compound, in the data set on A549 xenografts (mouse, in vivo), the “Inhibition of tumor progression/growth (final tumor volume vs vehicle)” value amounted to 40%. In addition, the “Effect on thrombin-dependent VEGF-A production” value in the data set on VEGF-A production was “partially blocked”. Further, the “Clearance / plasma half-life in words” value in [6] is “rapid clearance after 1 hour”. In [6] (CF-1, mouse, plasma, sc, read-out: Time of peak plasma level), the Tmax was 1 h. For the same compound, in data set [6] (mouse, plasma, sc, CF-1 mice, read-out: Peak plasma level), the Cmax turned out to be 1000 nM. The “Effect on thrombin-induced ERK1/2 phosphorylation” value at PAR1 is reported as “complete inhibition”.
In the case of “P2pal-18SF: palmitoylated PAR2 pepducin, R284 to S and K287 to F; SEQ ID NO:21 (Palmitoyl-RSSAMDENSEKKRKSAIF-NH2) [listing 2 of 2 here]”, in the data set with PAR2 [4], the “Agonist activity (calcium flux)” value is listed as “restored agonist activity”.
For the compound “P2pal-18F: palmitoylated PAR2 pepducin, K287 to F, first three residues (R267, M268, L269) deleted; SEQ ID NO:19 (Palmitoyl-RSSAMDENSEKKRKRAIF-NH2) [listing 2 of 2 here]”, in the data set with PAR2 [4], the “Antagonist activity (inhibition of SLIGRL calcium flux, area under the curve)” value is reported as “devoid of antagonist activity” and the “Agonist activity (calcium flux)” value is “slight decrease in agonist activity at lower concentration”.
On to “P2pal-14GF: N-terminally truncated palmitoylated PAR2 pepducin, M274 to G and K287 to F; SEQ ID NO:23 (Palmitoyl-GDENSEKKRKRAIF-NH2) [listing 2 of 2 here]”, for which, in the data set with PAR2 [4], the “Antagonist activity (inhibition of SLIGRL calcium flux, area under the curve)” value is recorded as “no significant agonist or any detectable antagonist activity” and the “Agonist activity (calcium flux)” value is “no significant agonist”.

Values taken from patent US10913781B2, “Pepducin design and use” (Tufts Medical Center, Inc., priority 2011, dated 2021).
